IntAct's records for PubMed 21577206

B1: Transgelin-2 (Homo sapiens), P37802 (parent)
chain: MANRGPAYGLSREVQQKIEKQYDADLEQILIQWITTQCRKDVGRPQPGRENFQNWLKDGTVLCELINALYPEGQAPVKKIQASTMAFKQMEQISQFLQAAERYGINTTDIFQTVDLWEGKNMACVQRTLMNLGGLAVARDDGLFSGDPNWFPKKSKENPRNFSDNQLQEGKNVIGLQMGTNRGASQAGMTGYGMPRQIL

Variants of: B1
Details: with actb_human ACTB

Variant	effect of a mutation on the interaction
S83A	increasing interaction
S83D	decreasing interaction
S163A	increasing interaction
S163D	decreasing interaction
